Test results taken from patent publication US20240109974A1 (SHANDONG SIMCERE BIOPHARMACEUTICAL, published 2024).

T1: Human TNFR2-His (Sino 10417-H08H) (human, UniProt P20333 23-257)
T1 construct: Bought protein; also called recombinant human TNFR2 protein; not shown: His tag
T1 sequence (looked up): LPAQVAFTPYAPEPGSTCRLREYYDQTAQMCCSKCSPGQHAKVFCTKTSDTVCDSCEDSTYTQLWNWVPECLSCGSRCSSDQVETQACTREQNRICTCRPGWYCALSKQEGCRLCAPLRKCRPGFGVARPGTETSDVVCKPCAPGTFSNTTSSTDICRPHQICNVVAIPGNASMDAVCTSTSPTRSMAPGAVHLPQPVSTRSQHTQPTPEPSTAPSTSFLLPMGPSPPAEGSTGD

T2: Cynomolgus TNFR2-His (Sino 90102-C08H) (cynomolgus monkey, UniProt A0A2K5VET2 132-366)
T2 construct: Bought protein; also called cynomolgus monkey TNFR2; recombinant cynomolgus monkey TNFR2 protein; not shown: His tag
T2 sequence: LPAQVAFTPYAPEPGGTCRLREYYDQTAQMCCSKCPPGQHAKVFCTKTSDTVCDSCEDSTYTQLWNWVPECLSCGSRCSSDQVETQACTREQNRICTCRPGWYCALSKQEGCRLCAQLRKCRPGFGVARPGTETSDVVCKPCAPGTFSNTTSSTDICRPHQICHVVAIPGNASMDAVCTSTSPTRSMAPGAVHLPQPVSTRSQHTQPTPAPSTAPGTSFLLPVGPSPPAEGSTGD

T3: human TNFR2 (Novoprotein, Cat #C830) (human, UniProt P20333 23-257, limits assumed)
T3 construct: construct not described; also called human TNFR2 protein
T3 sequence (looked up): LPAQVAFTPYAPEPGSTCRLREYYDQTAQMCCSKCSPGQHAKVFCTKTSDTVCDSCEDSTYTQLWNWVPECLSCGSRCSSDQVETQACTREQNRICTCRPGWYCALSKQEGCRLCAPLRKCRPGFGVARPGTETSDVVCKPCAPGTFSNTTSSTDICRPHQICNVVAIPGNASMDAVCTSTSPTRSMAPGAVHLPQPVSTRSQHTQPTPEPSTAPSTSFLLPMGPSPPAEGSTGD

T4: human TNFR2 on the surface of CHO-TNFR2 cells (human, UniProt P20333 23-461)
T4 construct: whole, on cells
T4 sequence (looked up): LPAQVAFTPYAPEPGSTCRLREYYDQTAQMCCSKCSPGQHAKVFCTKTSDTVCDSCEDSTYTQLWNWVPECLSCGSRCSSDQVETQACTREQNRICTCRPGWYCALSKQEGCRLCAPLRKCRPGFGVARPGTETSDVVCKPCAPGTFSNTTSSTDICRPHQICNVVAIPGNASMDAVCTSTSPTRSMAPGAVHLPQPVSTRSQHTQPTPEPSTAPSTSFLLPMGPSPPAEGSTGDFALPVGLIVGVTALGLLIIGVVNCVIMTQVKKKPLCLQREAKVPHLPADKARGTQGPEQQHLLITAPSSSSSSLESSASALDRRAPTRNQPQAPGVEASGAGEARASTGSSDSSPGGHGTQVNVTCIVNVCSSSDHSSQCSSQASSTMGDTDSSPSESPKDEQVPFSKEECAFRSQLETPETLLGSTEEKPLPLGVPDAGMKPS


Key:
[1] = target: T1, Human TNFR2-His (Sino 10417-H08H); assay: SPR (Biacore T200), antibody captured on Protein A chip
Procedure: (§1) Biacore was used to detect the specific binding of a test anti-TNFR2 antibody to human and cynomolgus monkey TNFR2 proteins. In this experiment, a Protein A chip was used, the time required for the chip to capture the diluted antibody was determined by manual run, so that the Rmax of the saturated binding to an antigen was 50 RU. […] The affinity of an antibody for an antigen was determined by using multi-cycle dynamics. In each cycle, an antibody was injected and then a TNFR2 protein at a gradient concentration was injected, so that the antigen and the antibody underwent binding and dissociation processes. After each cycle, the Protein A chip was regenerated with Glycine pH 1.5 (removing the protein on the chip). The affinity KD of an antibody and an antigen was fitted with BIAcore T200 analysis software.

[2] = target: T2, Cynomolgus TNFR2-His (Sino 90102-C08H); assay: as above
Procedure: as §1

[3] = target: T3, human TNFR2 (Novoprotein, Cat #C830); assay: competition ELISA, human TNFR2 coated, competitor human TNFα-Biotin
Procedure: 1 μg/ml human TNFR2 (Novoprotein, Cat #C830) was pre-coated with 100 μl/well […] in an ELISA plate. All the test TNFR2 antibodies were subjected to 2.5-fold gradient dilution from the highest concentration of 30 μg/ml; the diluted antibodies were mixed with 15 ng/ml human TNFα-Biotin (Acro Biosystem, Cat #TNA-H82E3) in equal volume, respectively; the resulting mixture was added to the ELISA plate at 100 μl/well, and incubated with shaking at room temperature for 2.0 hours. The plate was washed, and then a Streptavidin-HRP working solution (diluted at 1:10000) was added at 100 μl/well, and the mixture was incubated with shaking at room temperature for 40 minutes. The plate was washed again, and then the substrate TMB of HRP was added to develop colour. A stop solution was added to stop the reaction, and then a microplate reader (MD 13) was used to read the absorbance value. The inhibitory curve of an antibody was drawn with antibody concentration as the abscissa and corresponding OD value as the ordinate, and fitted with four parameters (GraphPad Prism9) to calculate the IC50 value. The smaller the IC50 value, the stronger the ability of an antibody to inhibit the binding of human TNFα to human TNFR2. The blocking effect of a humanized antibody was normalized to its corresponding human-murine chimeric antibody WT. The higher the percentage value, the better the inhibitory effect of the humanized antibody.

[4] = target: T4, human TNFR2 on the surface of CHO-TNFR2 …; assay: competition flow cytometry on CHO-TNFR2 cells, competitor TNFα-biotin; area under the MFI curve; set-up: unit not given beside the values
Procedure: CHO stable cells highly expressing human TNFR2 were used for the experiment (the same as CHO-TNFR2 in Example 4). The CHO-TNFR2 cells were digested, washed twice with DPBS, then stained with Live/Dead (L/D) (20 minutes at room temperature), and plated at a density of 1×10⁵ cells/50 μl/well. A test anti-TNFR2 antibody was diluted to 6 μg/ml with a staining buffer as the starting concentration: the antibody was subjected to 3.33-fold gradient dilution, with a total of 7 concentration points. The diluted antibody was added to the plated cells at 50 μl/well, and the mixture was mixed well by gentle pipetting, and incubated at 4° C. for 30 minutes. Then the diluted 100 ng/ml of human TNFα-biotin was added at 100 μl/well, and the mixture was mixed well by gentle pipetting, and then incubated at 4° C. for 30 minutes. The mixture was washed twice with a staining buffer, and then 0.12 μg/ml PE-streptavidin (BioLegend, Cat #405204) was added at 100 μl/well; the resulting mixture was incubated at 4° C. for 30 minutes. The mixture was washed twice with a staining buffer, and then 150 μl of staining buffer was added to resuspend the cells; signals were detected by a flow cytometer (Thermo Attune NxT). The inhibitory curve of an antibody was drawn with antibody concentration as the abscissa and corresponding MFI value as the ordinate, and fitted with four parameters (GraphPad Prism9) to calculate the IC50 value. The smaller the IC50 value, the stronger the ability of an antibody to inhibit the binding of human TNFα to human TNFR2. The blocking effect of a humanized antibody was normalized to its corresponding human-murine chimeric WT antibody. The higher the percentage value, the better the inhibitory effect of the humanized antibody.

Row | Kd [1] [nM] | koff [1] [s⁻¹] | kon [1] [M⁻¹ s⁻¹] | Kd [2] [nM] | koff [2] [s⁻¹] | kon [2] [M⁻¹ s⁻¹] | IC50 [3] [µg/mL] | AUC [4] | Binder
1 | 6.57 | 0.000766 | 117000 | 3.95 | 0.000953 | 241000 | 0.441 | 20300 | 224-Hu1 (antibody, V domains shown, Humanized form of #224; also called VH8 + VL6) VH: QVQLVQSGAEVKKPGASVKVSCKASGFNNKDIYMHWVRQAPGQGLEWIGRIDPATGNTKHDPKFQDRVTMTSDTSTNTVYMELSSLRSEDTAVYYCARSPYGDFGAMDYWGQGTLVTVSS VL: DIQMTQSPSSLSASVGDRVTITCTASSSVSSNYLHWYQQKPGKAPKLWIYSTSNLPSGVPSRFSGSGSGTDFTLTISSLQPEDFATYYCHQYHRSPWTFGQGTKVEIK
2 | 5.64 | 0.000815 | 145000 | 3.12 | 0.000991 | 318000 | 0.561 | 19600 | 224-Hu7 (antibody, V domains shown, Humanized form of #224; also called VH9 + VL10) VH: QVQLVQSGSELKKPGASVKVSCKASGFNNKDIYMHWVRQAPGQGLEWMGRIDPATGNTKHDPKFQDKAVLSSDTSVSTAYLQISSLKAEDTAVYYCARSPYGDFGAMDYWGQGTLVTVSS VL: DIQMTQSPSSLSASVGDRVTITCTASSSVSSNYLHWYQQKPGKAPKLLIYSTSNLPSGVPSRFSGSGSGTDFTLTISSLQPEDFATYYCHQYHRSPWTFGQGTKVEIK
3 | 4.28 | 0.000682 | 159000 | 3.31 | 0.000828 | 250000 | 0.528 | 14600 | 224-Hu5 (antibody, V domains shown, Humanized form of #224; also called VH9 + VL9) VH: QVQLVQSGSELKKPGASVKVSCKASGFNNKDIYMHWVRQAPGQGLEWMGRIDPATGNTKHDPKFQDKAVLSSDTSVSTAYLQISSLKAEDTAVYYCARSPYGDFGAMDYWGQGTLVTVSS VL: DIQMTQSPSSLSASVGDRVTITCTASSSVSSNYLHWYQQKPGKAPKLLIYSTSNLPSGVPSRFSGSGSGTDYSLTISSLQPEDFATYYCHQYHRSPWTFGQGTKVEIK
4 | 4.31 | 0.000686 | 159000 | 2.95 | 0.000835 | 283000 | 0.44 | 19200 | 224-Hu2 (antibody, V domains shown, Humanized form of #224; also called VH9 + VL7) VH: QVQLVQSGSELKKPGASVKVSCKASGFNNKDIYMHWVRQAPGQGLEWMGRIDPATGNTKHDPKFQDKAVLSSDTSVSTAYLQISSLKAEDTAVYYCARSPYGDFGAMDYWGQGTLVTVSS VL: DIQMTQSPSSLSASVGDRVTITCTASSSVSSNYLHWYQQKPGSSPKLWIYSTSNLPSGVPSRFSGSGSGTDFTLTISSLQPEDFATYYCHQYHRSPWTFGQGTKVEIK
5 | 5.59 | 0.00072 | 129000 | 3.17 | 0.000881 | 278000 | 0.458 | 14200 | 224-Hu4 (antibody, V domains shown, Humanized form of #224; also called VH9 + VL6) VH: QVQLVQSGSELKKPGASVKVSCKASGFNNKDIYMHWVRQAPGQGLEWMGRIDPATGNTKHDPKFQDKAVLSSDTSVSTAYLQISSLKAEDTAVYYCARSPYGDFGAMDYWGQGTLVTVSS VL: DIQMTQSPSSLSASVGDRVTITCTASSSVSSNYLHWYQQKPGKAPKLWIYSTSNLPSGVPSRFSGSGSGTDFTLTISSLQPEDFATYYCHQYHRSPWTFGQGTKVEIK
6 | 4.08 | 0.000697 | 171000 | 2.63 | 0.000848 | 323000 | 0.439 | 13900 | 224-Hu6 (antibody, V domains shown, Humanized form of #224; also called VH8 + VL7) VH: QVQLVQSGAEVKKPGASVKVSCKASGFNNKDIYMHWVRQAPGQGLEWIGRIDPATGNTKHDPKFQDRVTMTSDTSTNTVYMELSSLRSEDTAVYYCARSPYGDFGAMDYWGQGTLVTVSS VL: DIQMTQSPSSLSASVGDRVTITCTASSSVSSNYLHWYQQKPGSSPKLWIYSTSNLPSGVPSRFSGSGSGTDFTLTISSLQPEDFATYYCHQYHRSPWTFGQGTKVEIK
7 | 4.1 | 0.000726 | 177000 | 2.97 | 0.000847 | 285000 | 0.441 | 18700 | 224-Hu3 (antibody, V domains shown, Humanized form of #224; also called VH9 + VL8) VH: QVQLVQSGSELKKPGASVKVSCKASGFNNKDIYMHWVRQAPGQGLEWMGRIDPATGNTKHDPKFQDKAVLSSDTSVSTAYLQISSLKAEDTAVYYCARSPYGDFGAMDYWGQGTLVTVSS VL: DIQMTQSPSSLSASVGDRVTITCTASSSVSSNYLHWYQQKPGKAPKLLIYSTSNLPSGVPSRFSGSGSGTDFTLTISSLQAEDAATYYCHQYHRSPWTFGQGTKVEIK
8 | 0.309 | 0.000137 | 445000 | 0.626 | 0.000381 | 608000 | 0.578 | 7260 | 219-Hu5 (antibody, V domains shown, also called VH7 + VL5) VH: QVQLVQSGAEVKKPGSSVKVSCKASGYSFTNYWMNWVRQAPGQGLEWMGMIHPSDTETRLNQNFKDRVTITVDKSTSTAYMELSSLRSEDTAVYYCARGEGLGAARSVSMDYWGQGTLVTVSS VL: DIQMTQSPSSLSASVGDRVTITCRASQDISNYLNWYQQKPDGTVKLLIYYTAILHSGVPSRFSGSGSGTDYSLTISSLQPEDFATYFCQQGNTLPWTFGQGTKVEIK
